{"source": "paper PMC3478187", "about": "“PEGylation, increasing specific activity and multiple dosing as strategies to improve the risk-benefit profile of targeted radionuclide therapy with ^177Lu-DOTA-bombesin analogues” (EJNMMI Research, 2012)", "key": {"BN2/GRP receptors": {"target": "T1, BN2/GRP receptors (Homo sapiens, UniProt P30550)", "T1 construct": "Since IC50 determination was done on whole PC-3 cells; endogenous in cells; host or cells: PC-3 cells (human prostate carcinoma)", "T1 sequence (P30550 whole entry)": "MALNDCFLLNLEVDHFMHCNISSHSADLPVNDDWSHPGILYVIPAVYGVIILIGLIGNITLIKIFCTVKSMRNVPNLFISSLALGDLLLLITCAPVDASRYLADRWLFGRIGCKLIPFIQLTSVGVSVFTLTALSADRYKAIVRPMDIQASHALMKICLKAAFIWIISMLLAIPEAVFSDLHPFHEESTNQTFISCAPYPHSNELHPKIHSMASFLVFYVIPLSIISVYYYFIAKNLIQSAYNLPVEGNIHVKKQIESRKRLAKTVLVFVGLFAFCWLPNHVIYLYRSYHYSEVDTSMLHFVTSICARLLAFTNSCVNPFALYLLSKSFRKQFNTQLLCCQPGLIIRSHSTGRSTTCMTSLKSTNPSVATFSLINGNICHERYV", "test": "Apparent receptor affinity (IC50), displacement of ^99mTc-BN(7-14) on whole PC-3 cells", "assay_type": "binding", "experimental": "Material & Methods: PC-3 cells at confluence were placed in 48-well plates and left to attach overnight. […] After 1 h incubation at 37°C, the cells were twice washed with cold PBS and solubilized by adding 400 μl (2 x) of 1 N NaOH at 37°C. The bound radioactivity was measured in the gamma counter. The experiments were performed in triplicate."}, "[1]": {"test": "Octanol/PBS partition coefficient (log D)", "assay_type": "physicochemical", "details": "shake-flask 1-octanol/PBS (1:1), pH 7.4, 30 kBq, vortex 1 min, centrifuged, gamma counter, sextuplicate, mean ± SD", "experimental": "Material & Methods: The octanol/PBS partition coefficients were determined at pH 7.4. Five μl containing 30 kBq of the radiolabelled compounds in phosphate buffered saline (PBS) were added to a vial which contained 1.2 ml of 1-octanol and PBS (1:1). After vortexing for 1 min, the vial was centrifuged (5 min, 10 000 rpm) to ensure complete separation of layers. Then, 40 μl of each layer were taken in a preweighed vial and measured in a gamma counter (Packard Canberra Cobra II, Meriden, USA). Counts per weight unit of sample were calculated and log D values were determined as described by Pillarsetty et al. using the formula log10D=log10 (counts in 1 g of octanol/counts in 1 g of PBS). The experiments were performed in sextuplicate."}, "[2]": {"test": "Metabolic stability in human plasma", "assay_type": "in vitro ADME", "details": "37 °C", "experimental": "The labelled analogues were incubated with human plasma (final concentration, 10 MBq/0.6 ml) at 37 °C for various time intervals up to 12 days. After incubation, proteins were precipitated with acetonitrile/ethanol (1:1) and TFA (0.1%) and then centrifuged. The supernatant was analysed with RP-high-performance liquid chromatography (HPLC) equipped with a radioactivity detector. […] The experiments were performed two times."}, "[3]": {"test": "Biodistribution in nude mice bearing PC-3 tumour xenografts", "details": "female, CD-1 nu/nu, mouse, in vivo, iv, total radioactivity; for tissue uptake at 1 h / tissue uptake at 24 h: 0.3 MBq/0.075 nmol i.v., mean ± SD", "experimental": "All animal experiments were conducted in compliance with the Swiss animal protection laws and with the ethical principles and guidelines for scientific animal experimentation established by the Swiss Academy of Natural Sciences. Biodistribution studies were performed with 6- to 8-week-old female CD-1 nu/nu mice (20 to 25 g) purchased from Charles River Laboratories (Sulzfeld, Germany). For the induction of tumour xenografts, each mouse received subcutaneously 8 × 10^6 PC-3 cells in 150 μl culture medium without supplements. The tumours were allowed to grow for at least 3 weeks. On the day of the experiment, the mice (3 to 6 per group) received the radioactive conjugates intravenously. […] Receptor-blocking studies were performed using 100 μg of unlabelled BN(1–14) co-injected with the corresponding radiolabelled BN analogue. At 1, 4 and 24 h post injection (p.i.), the animals were euthanised and dissected. Blood, tumours and various healthy tissues and organs were collected, weighed and examined for radioactivity. Results are expressed as percentage of injected dose per gram of tissue (% ID/g)."}, "[4]": {"details": "cited from earlier work"}, "[5]": {"details": "cited from earlier work; for GI uptake: HPLC purified", "protocol": "The biodistribution data, in which 0.002 nmol of ^177Lu-AMBA and ^177Lu-DOTA-8-AOC-BN(7–14) (HPLC purified) was injected per mouse [23], and the data of ^177Lu-DOTA-PESIN (0.2 nmol peptide) [25] were compared with our biodistribution data, in which 0.075 nmol of the ^177Lu-labelled BN analogues were injected. This 0.075 nmol is the nearest possible approximation to the 0.002 nmol without HPLC purification, which is desired in clinics."}, "PC-3 xenografts": {"system": "PC-3 xenografts", "details": "ref [24]; cited from earlier work", "description": "Comparing our study with the therapy studies with ^177Lu-AMBA [23], ^177Lu-DOTA-PESIN [25] (2 × 28 MBq, 0.2 nmol) and ^177Lu-DOTA-8-AOC-BN(7–14), we found the tumour growth inhibition with our PEGylated BN analogue to be lower than with AMBA (approximately 73% vs. approximately 82%) but higher than with DOTA-PESIN (approximately 73% vs. approximately 45%) and roughly the same as with ^177Lu-DOTA-8-AOC-BN(7–14) (approximately 73% vs. approximately 79%) 3 weeks after the first dose. However, such a comparison is not fully conclusive since these therapy studies differ in tumour size at ..."}, "[6]": {"details": "1 h p.i., 0.002 nmol per mouse, ref [23]"}, "[7]": {"details": "24 h p.i., 0.002 nmol per mouse, ref [23]"}}, "note": "Like-named read-outs stand apart in the source and are kept apart here.", "data": [{"compound": "CCCC[C@H](NC(=O)[C@H](CC1CCCCC1)NC(=O)[C@H](Cc1c[nH]cn1)NC(=O)CNC(=O)[C@@H](NC(=O)[C@H](C)NC(=O)[C@H](Cc1c[nH]c2ccccc12)NC(=O)[C@H](CCC(N)=O)NC(=O)CCNC(=O)CCNC(=O)CC(CCCCN)NC(=O)CN1CCN(CC(=O)O)CCN(CC(=O)O)CCN(CC(=O)O)CC1)C(C)C)C(N)=O", "note": "(stereo partly drawn) [DOTA-Lys-BN, DOTA-β^3hLys-βAla-βAla-Gln^7-Trp^8-Ala^9-Val^10-Gly^11-His^12-Cha^13-Nle^14-NH2]", "values": [{"measurement": "IC50", "setting": "BN2/GRP receptors", "result": "2.03 ± 0.42", "unit": "nM"}]}, {"compound": "CCCC[C@H](NC(=O)[C@H](CC1CCCCC1)NC(=O)[C@H](Cc1c[nH]cn1)NC(=O)CNC(=O)[C@@H](NC(=O)[C@H](C)NC(=O)[C@H](Cc1c[nH]c2ccccc12)NC(=O)[C@H](CCC(N)=O)NC(=O)CCNC(=O)CCNC(=O)CC(CCCCN)NC(=O)CN1CCN(CC(=O)O)CCN(CC(=O)O)CCN(CC(=O)O)CC1)C(C)C)C(N)=O", "note": "(stereo partly drawn) [^177Lu-DOTA-Lys-BN, metal not drawn]", "values": [{"measurement": "logD", "setting": "[1]", "result": "-2.18 ± 0.07"}, {"measurement": "remaining at 120 h, 10 MBq/0.6 ml", "setting": "[2]; 10 MBq/0.6 ml, 5 days, precipitation acetonitrile/ethanol (1:1) + 0.1% TFA, RP-HPLC radioactivity detector, performed two times, mean ± SD, read-out: remained intact after 5 days", "result": "13.8 ± 5.7", "unit": "%"}, {"measurement": "half-life at 10 MBq/0.6 ml", "setting": "[2]; 10 MBq/0.6 ml, up to 12 days, RP-HPLC radioactivity detector, performed two times, mean ± SD", "result": 28.8, "unit": "h"}, {"measurement": "half-life (t1/2) in human plasma", "setting": "[2]; in vitro, as printed in hours in the discussion", "result": 28.8, "unit": "h"}, {"measurement": "tissue uptake at 1 h", "setting": "[3]; 1 h p.i. blocked, 100 μg unlabelled BN(1–14) co-injected, n = 3 to 4, read-out: Colon uptake, blocked", "result": "0.36 ± 0.07", "unit": "%ID/g"}, {"measurement": "tissue uptake at 1 h", "setting": "[3]; 1 h p.i. blocked, 100 μg unlabelled BN(1–14) co-injected, n = 3 to 4, read-out: Pancreas uptake, blocked", "result": "0.49 ± 0.22", "unit": "%ID/g"}, {"measurement": "tissue uptake at 1 h", "setting": "[3]; 1 h p.i. blocked, 100 μg unlabelled BN(1–14) co-injected, n = 3 to 4, read-out: Tumour uptake, blocked", "result": "0.55 ± 0.03", "unit": "%ID/g"}, {"measurement": "tissue uptake at 1 h", "setting": "[3]; 1 h p.i., n = 3 to 4, read-out: Blood uptake", "result": "0.24 ± 0.07", "unit": "%ID/g"}, {"measurement": "tissue uptake at 1 h", "setting": "[3]; 1 h p.i., n = 3 to 4, read-out: Bone uptake", "result": "0.36 ± 0.24", "unit": "%ID/g"}, {"measurement": "tissue uptake at 1 h", "setting": "[3]; 1 h p.i., n = 3 to 4, read-out: Colon uptake", "result": "1.64 ± 0.4", "unit": "%ID/g"}, {"measurement": "tissue uptake at 1 h", "setting": "[3]; 1 h p.i., n = 3 to 4, read-out: Heart uptake", "result": "0.14 ± 0.06", "unit": "%ID/g"}, {"measurement": "tissue uptake at 1 h", "setting": "[3]; 1 h p.i., n = 3 to 4, read-out: Kidneys uptake", "result": "2.86 ± 0.63", "unit": "%ID/g"}, {"measurement": "tissue uptake at 1 h", "setting": "[3]; 1 h p.i., n = 3 to 4, read-out: Liver uptake", "result": "0.26 ± 0.09", "unit": "%ID/g"}, {"measurement": "tissue uptake at 1 h", "setting": "[3]; 1 h p.i., n = 3 to 4, read-out: Lung uptake", "result": "0.36 ± 0.08", "unit": "%ID/g"}, {"measurement": "tissue uptake at 1 h", "setting": "[3]; 1 h p.i., n = 3 to 4, read-out: Muscle uptake", "result": "0.2 ± 0.24", "unit": "%ID/g"}, {"measurement": "tissue uptake at 1 h", "setting": "[3]; 1 h p.i., n = 3 to 4, read-out: Pancreas uptake", "result": "8.68 ± 1.95", "unit": "%ID/g"}, {"measurement": "tissue uptake at 1 h", "setting": "[3]; 1 h p.i., n = 3 to 4, read-out: Small intestine uptake", "result": "1.38 ± 0.41", "unit": "%ID/g"}, {"measurement": "tissue uptake at 1 h", "setting": "[3]; 1 h p.i., n = 3 to 4, read-out: Spleen uptake", "result": "0.42 ± 0.12", "unit": "%ID/g"}, {"measurement": "tissue uptake at 1 h", "setting": "[3]; 1 h p.i., n = 3 to 4, read-out: Stomach uptake", "result": "0.72 ± 0.19", "unit": "%ID/g"}, {"measurement": "tissue uptake at 1 h", "setting": "[3]; 1 h p.i., n = 3 to 4, read-out: Tumour uptake", "result": "1.88 ± 0.47", "unit": "%ID/g"}, {"measurement": "tissue to tissue ratio at 24 h", "setting": "[3]; 24 h p.i., 0.075 nmol, read-out: tumour-to-liver ratio", "result": 5.9}, {"measurement": "tissue uptake at 24 h", "setting": "[3]; 24 h p.i., n = 3 to 4, read-out: Bone uptake", "result": "0.02 ± 0.01", "unit": "%ID/g"}, {"measurement": "tissue uptake at 24 h", "setting": "[3]; 24 h p.i., n = 3 to 4, read-out: Colon uptake", "result": "0.36 ± 0.09", "unit": "%ID/g"}, {"measurement": "tissue uptake at 24 h", "setting": "[3]; 24 h p.i., n = 3 to 4, read-out: Heart uptake", "result": "0.01 ± 0.01", "unit": "%ID/g"}, {"measurement": "tissue uptake at 24 h", "setting": "[3]; 24 h p.i., n = 3 to 4, read-out: Kidneys uptake", "result": "1.41 ± 0.14", "unit": "%ID/g"}, {"measurement": "tissue uptake at 24 h", "setting": "[3]; 24 h p.i., n = 3 to 4, read-out: Liver uptake", "result": "0.09 ± 0.02", "unit": "%ID/g"}, {"measurement": "tissue uptake at 24 h", "setting": "[3]; 24 h p.i., n = 3 to 4, read-out: Lung uptake", "result": "0.02 ± 0.01", "unit": "%ID/g"}, {"measurement": "tissue uptake at 24 h", "setting": "[3]; 24 h p.i., n = 3 to 4, read-out: Muscle uptake", "result": 0.01, "unit": "%ID/g"}, {"measurement": "tissue uptake at 24 h", "setting": "[3]; 24 h p.i., n = 3 to 4, read-out: Pancreas uptake", "result": "4.27 ± 0.85", "unit": "%ID/g"}, {"measurement": "tissue uptake at 24 h", "setting": "[3]; 24 h p.i., n = 3 to 4, read-out: Small intestine uptake", "result": "0.16 ± 0.03", "unit": "%ID/g"}, {"measurement": "tissue uptake at 24 h", "setting": "[3]; 24 h p.i., n = 3 to 4, read-out: Spleen uptake", "result": "0.18 ± 0.04", "unit": "%ID/g"}, {"measurement": "tissue uptake at 24 h", "setting": "[3]; 24 h p.i., n = 3 to 4, read-out: Stomach uptake", "result": "0.1 ± 0.02", "unit": "%ID/g"}, {"measurement": "tissue uptake at 24 h", "setting": "[3]; 24 h p.i., n = 3 to 4, read-out: Tumour uptake", "result": "0.54 ± 0.3", "unit": "%ID/g"}]}, {"compound": "DO3A-CH2CO-8-aminooctanoyl-Gln-Trp-Ala-Val-Gly-His-Leu-Met-NH2 [^177Lu-AMBA]", "values": [{"measurement": "half-life (t1/2) in human plasma", "setting": "[4]; ref [23]", "result": 38.8, "unit": "h"}, {"measurement": "GI uptake", "setting": "[5]; [6]", "result": 11.2, "unit": "%ID"}, {"measurement": "tumour uptake", "setting": "[5]; [6]", "result": "6.35 ± 2.23", "unit": "% ID/g"}, {"measurement": "GI uptake", "setting": "[5]; [7]", "result": 5.8, "unit": "% ID"}]}, {"compound": "DOTA-8-AOC-BN(7–14)NH2 [^177Lu-DOTA-8-AOC-BN(7–14)]", "values": [{"measurement": "GI uptake", "setting": "[5]; [6]", "result": 9.7, "unit": "%ID"}, {"measurement": "tumour uptake", "setting": "[5]; [6]", "result": "2.84 ± 1.65", "unit": "% ID/g"}, {"measurement": "GI uptake", "setting": "[5]; [7]", "result": 1.7, "unit": "% ID"}, {"measurement": "tumour growth inhibition 3 weeks after the first dose", "setting": "PC-3 xenografts", "result": "approximately 79%"}]}, {"compound": "DOTA-15-amino-4,7,10,13-tetraoxapentadecanoic acid-Gln-Trp-Ala-Val-Gly-His-Leu-Met-NH2 [^177Lu-DOTA-PESIN]", "values": [{"measurement": "half-life (t1/2) in human plasma", "setting": "[4]; ref [25]", "result": 8.4, "unit": "h"}, {"measurement": "kidney uptake", "setting": "[5]; 1 h p.i., 0.2 nmol peptide, Gelofusine and polyglutamic acid co-administered, ref [25]", "result": "3.8 ± 0.34", "unit": "%ID/g"}, {"measurement": "tumour uptake", "setting": "[5]; 1 h p.i., 0.2 nmol peptide, ref [25]", "result": "11.6 ± 1.4", "unit": "%ID/g"}]}]}
